From publication PMC6346213
Where “and” joins values, the source holds several entries; their conditions need not be identical. Equal values may be shown once.

Biological target: COP9 signalosome (CSN) holo-complex (human (endogenous in HEK293)) (UniProt Q13098)
Experiment: SEC; co-fractionation of native HEK293 lysate (freeze-thaw, 0.5% NP-40); Yarra-SEC-4000, 50 mM HEPES pH 7.5, 150 mM NaCl, 4°C; 81 fractions quantified by SWATH-MS; co-elution of protein profiles scored with CCprofiler (5% FDR) and by manual inspection

UniProt Q13098, sequence (Q13098 whole entry, looked up, one chain of several): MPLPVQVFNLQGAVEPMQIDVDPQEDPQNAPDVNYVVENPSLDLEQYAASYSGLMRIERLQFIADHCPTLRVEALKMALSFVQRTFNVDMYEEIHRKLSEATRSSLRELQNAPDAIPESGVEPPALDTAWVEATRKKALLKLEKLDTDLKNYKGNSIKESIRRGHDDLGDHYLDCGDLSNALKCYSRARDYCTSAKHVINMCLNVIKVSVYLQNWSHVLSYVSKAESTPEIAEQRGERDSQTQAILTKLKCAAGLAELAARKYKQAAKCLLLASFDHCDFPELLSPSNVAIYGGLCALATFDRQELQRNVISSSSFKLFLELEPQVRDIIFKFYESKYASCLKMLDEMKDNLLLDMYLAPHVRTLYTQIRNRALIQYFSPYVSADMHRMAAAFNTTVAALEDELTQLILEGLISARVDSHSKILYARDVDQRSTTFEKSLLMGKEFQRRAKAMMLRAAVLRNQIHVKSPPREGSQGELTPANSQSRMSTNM

substrate-bound fraction of CSN holo-complex: 25% and 22%
Substance: E3-CRL substrate of the COP9 signalosome (components CUL4A and DDB2) (from UniProt Q13619 1-759; Q92466 1-427) (complex)
